# Reference: US20080193973A1, “Bacillus Subtilis Strain and its Use in Preparing Pharmaceuticals for Treating Thrombosis” (CHENGDU DI'AO JIUHONG PHARMACEUTICAL, priority 2005, published 2008)
# Marks after values point to notes of the source that are not given here.
# B1: nattokinase of the invention: fibrinolysin produced by Bacillus subtilis Diao 1502; crude drug, luteous water-soluble powder, batch No. 20040617 (protein, UniProt P35835 107-381, looked up)
# Subtilisin NAT: AQSVPYGISQIKAPALHSQGYTGSNVKVAVIDSGIDSSHPDLNVRGGASFVPSETNPYQDGSSHGTHVAGTIAALNNSIGVLGVAPSASLYAVKVLDSTGSGQYSWIINGIEWAISNNMDVINMSLGGPTGSTALKTVVDKAVSSGIVVAAAAGNEGSSGSTSTVGYPAKYPSTIAVGAVNSSNQRASFSSVGSELDVMAPGVSIQSTLPGGTYGAYNGTSMATPHVAGAAALILSKHPTWTNAQVRDRLESTATYLGNSFYYGKGLINVQAAAQ
# B2: Nattokinase (NK): serine protease extracted from the traditional Japanese food Natto, 275 amino acids (background literature) (protein, UniProt P35835 107-381, looked up)
# Subtilisin NAT: AQSVPYGISQIKAPALHSQGYTGSNVKVAVIDSGIDSSHPDLNVRGGASFVPSETNPYQDGSSHGTHVAGTIAALNNSIGVLGVAPSASLYAVKVLDSTGSGQYSWIINGIEWAISNNMDVINMSLGGPTGSTALKTVVDKAVSSGIVVAAAAGNEGSSGSTSTVGYPAKYPSTIAVGAVNSSNQRASFSSVGSELDVMAPGVSIQSTLPGGTYGAYNGTSMATPHVAGAAALILSKHPTWTNAQVRDRLESTATYLGNSFYYGKGLINVQAAAQ
# Assays:
# [1] = tested on: carotid artery thrombosis in rats; assay: carotid artery thrombosis test in rats (direct current stimulation, thrombus formation time); format: in vivo, SD rats
# Procedure: Experimental Apparatus: Experimental Intracorporeal Thrombosis Surveyor BT87-3, developed by the cardiovascular research department of Baotou Medical University of China.
# The carotid artery of test rats were separated 1 hour after the last intragastric administration or 15 minutes after intravenous injection according to the method prescribed in existing literature. Being stimulated continually with direct current (2 mA) for 7 minutes, the injuries of endarterium of carotid artery formed thrombosis gradually in test rats. The experimental apparatus would give an automatic alarm and record the time of thrombus formation when the blood vessels were blocked.
# [2] = weight and overt toxicity of test rats during 7 days of administration
# Procedure: Experimental Animal: 84 male SD rats weighing 250 to 320 g, purchased from the Animal Center of Henan Medical University of China.
# Eighty-four male SD rats were randomly assigned to seven experimental groups (12 rats each group) according to their body weight. The freeze-dried powder of nattokinase and positive drug aspirin were given to test groups and the control group was administered with 5% NaHCO3, by intragastric administration according to the dosage of 0.5 ml/100 g each day for 7 continuous days. The positive drug staphylokinase was given at the 7th day by intravenous injection.
# mice = assay: acute toxicity test by intragastric administration in mice; format: in vivo
# [3] = preliminary test of activity of nattokinase prepared by 5% NaHCO3 at room temperature; format: physicochemical; details: prepared by 5% NaHCO3, room temperature for 4 days
# Source text: Basis of Preparation: It has been reported that the nattokinase-like drugs are stable at pH values from 6.0 to 12.0 and unstable when to the PH value is below 5.0. Generally, the pH values of digestive tract are ranged from 0.9 to 1.5 in stomach, 6.0 to 6.8 in small intestine and 6.5 to 7.5 in colon. Therefore, the direct intragastric administration of drug containing nattokinase prepared with common solution adjuvant is unstable and easy to breakdown.
# [4] = enzyme (nattokinase) activity of fermentation broth or dried crude product; format: biochemical
# Source text: Although many kinds of fermentation techniques have been reported in existing literatures related to nattokinase from Bacillus subtilis, but the majority of the publicized strains have lower enzyme producing ability. On the other hand, other literatures describes some fermentation products from Bacillus subtilis that have higher enzyme producing ability, but it is difficult to evaluate the abilities of these publicized enzymes for the uncertainties of measuring conditions. The strain of Bacillus subtilis of the invention was fermented under the condition of temperature 30 to 40 degree C. and with the speed of 180 to 220 rpm for shaking bed, and the peak of enzyme production was obtained next day with enzyme activity of 1600 IU/ml and could be increased to 1697 IU/ml under optimized conditions. The enzyme activity of dried crude product could reach to 5000-10000 IU/g in solid fermentation of 10 kg supplies. […] Therefore, it has a very high industrial application value. So we think that the strain of Bacillus subtilis (No. Diao 1502) is a newly developed, different one in comparison with any Bacillus subtilis producing nattokinase reported in existing literatures.
# [5] = temperature below 56 degree C. for 30 10 minutes; cited from earlier work
# [6] = in vivo, po; cited from earlier work
molecule,measurement,setting,value
CC(=O)Oc1ccccc1C(=O)O [Aspirin],"Thrombus formation time, mean value","[1]; aspirin 40 mg/kg/day intragastric for 7 days, 1 hour after last administration",1379** second
same,Weight of test rats after 7 days of administration,[2]; aspirin 40 mg/kg/day intragastric,316 ± 20
same,Weight of test rats before administration,[2]; aspirin group (40 mg/kg/day intragastric),296 ± 15
B1,LD50,mice,higher than 6.0 g/kg
same,Carotid artery thrombosis time compared with positive Aspirin (in words),[1]; groups of different dosages,no significant difference
same,"Thrombus formation time, mean value","[1]; high dosage 100 mg/kg in 5% NaHCO3, intragastric for 7 days",1309** second
same,Effect on carotid artery thrombosis time compared with negative control (in words),[1]; listed as NK prepared by 5% NaHCO3,apparent antithrombotic effects
same,Effect on carotid artery thrombosis time compared with negative control (in words),[1]; listed as freeze dried powder of nattokinase,prolonged significantly
same,"Thrombus formation time, mean value","[1]; low dosage 4 mg/kg in 5% NaHCO3, intragastric for 7 days",1237* second
same,"Thrombus formation time, mean value","[1]; middle dosage 20 mg/kg in 5% NaHCO3, intragastric for 7 days",1287* second
same,Activity after storage (in words),[3],no decrease in activity
same,Enzyme activity of fermentation broth,[4]; after optimization of fermentation condition,1697 IU/ml
same,Enzyme activity of fermentation broth,"[4]; liquid fermentation, before optimization",1600 IU/ml
same,Enzyme activity of dried crude product,"[4]; solid fermentation of 10 kg class, after drying",5000-10000 IU/g
same,Activity after incubation (in words),[5],basically unchanged
same,Toxicity in rats (in words),"[2]; 7-day's intragastric administration, prepared with 5% NaHCO3",no apparent toxicity
B2,Time of peak value of fibrinolytic activity after taking the medicine,[6],4 h
same,Time till which certain activity was maintained,[6],8 h
